Blank lines part the entries; values can stand above or below the substance they belong to. Ends that are not written are not given here.
How the values were obtained:
m^7GTP-CBC [1] = molecular target: T1, m^7GTP-CBC (Homo sapiens, UniProt P52298+Q09161); experiment: ITC, binding to CBC in the presence of the cap analogue m^7GTP; settings: for Kd: ITC, 25 °C, 20 mM HEPES, 120 mM NaCl, 2 mM TCEP, pH 7.8, CBC bound to m^7GTP, mean ± SD of at least two independent experiments, SD
T1 construct: 6-histidine tag (pETM30 vector) (N, cleaved yes); made in house; host or cells: CBP20 in E. coli Rosetta 2; CBP80ΔNLS in High Five insect cells; heterodimer reconstituted on Ni-sepharose
T1 sequence (Q09161 20-790): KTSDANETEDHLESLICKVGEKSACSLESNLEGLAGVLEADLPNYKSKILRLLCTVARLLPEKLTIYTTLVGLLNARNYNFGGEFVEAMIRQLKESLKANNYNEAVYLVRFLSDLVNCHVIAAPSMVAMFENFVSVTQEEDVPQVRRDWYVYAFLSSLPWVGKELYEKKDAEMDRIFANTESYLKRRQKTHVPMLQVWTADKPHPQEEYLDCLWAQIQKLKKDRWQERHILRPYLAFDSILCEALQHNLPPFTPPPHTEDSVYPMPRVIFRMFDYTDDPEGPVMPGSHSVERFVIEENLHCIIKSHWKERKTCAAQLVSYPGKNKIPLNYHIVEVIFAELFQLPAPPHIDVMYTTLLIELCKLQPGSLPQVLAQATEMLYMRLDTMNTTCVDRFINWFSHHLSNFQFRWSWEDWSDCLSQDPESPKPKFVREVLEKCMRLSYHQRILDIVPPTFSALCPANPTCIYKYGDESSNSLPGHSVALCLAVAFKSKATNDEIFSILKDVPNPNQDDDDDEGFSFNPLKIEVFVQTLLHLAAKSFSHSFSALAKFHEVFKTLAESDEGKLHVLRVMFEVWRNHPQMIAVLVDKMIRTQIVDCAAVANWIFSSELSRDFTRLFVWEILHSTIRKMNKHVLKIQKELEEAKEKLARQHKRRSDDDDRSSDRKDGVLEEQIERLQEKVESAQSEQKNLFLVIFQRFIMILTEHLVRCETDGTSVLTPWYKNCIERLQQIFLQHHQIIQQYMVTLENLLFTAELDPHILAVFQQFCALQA
T1 sequence (P52298 1-156): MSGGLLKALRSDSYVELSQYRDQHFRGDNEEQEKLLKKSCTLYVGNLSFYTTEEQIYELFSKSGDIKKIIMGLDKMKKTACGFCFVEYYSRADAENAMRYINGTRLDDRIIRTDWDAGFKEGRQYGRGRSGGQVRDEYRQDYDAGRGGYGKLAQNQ
From the text: (§1) hARS2 isoform-4 (871 residues, UniProt:Q9BXP5-4, also known as isoform-e, NP_001122326) constructs (residues 147–871, 147–845, 763–871, 763–845, 827–871) hNELF-E (NM_002904.5) (244–380, 244–360) and hPHAX (NM_032177.3) (1–394, 103–294, 103–308, 103–327) were cloned into pETM11 (EMBL). Full-length hNELF-E (1–380) was cloned into pFASTBac and CBP20 into pETM30. Primers used are given in Supplementary Table 2. All constructs were expressed in E. coli Rosetta 2 (Novagen), except full-length NELF-E and CBP80ΔNLS (CBP80 with residues 1–19 deleted[2]), which were expressed in High Five insect cells (Life Technology). Cells were harvested and lysed by sonication in lysis buffer containing 50 mM HEPES, pH 7.8, 300 mM NaCl, 10% (v/v) glycerol, 5 mM β-mercaptoethanol. Lysates were clarified by centrifugation and applied on an equilibrated Ni-sepharose column (GE Healthcare), washed with 20 mM imidazole in lysis buffer, and eluted with 300 mM imidazole in lysis buffer. While dialysing into 20 mM HEPES, pH 7.8, 120 mM NaCl, 10% (v/v) glycerol, 5 mM β-mercaptoethanol, the N-terminal 6-histidine-tag was cleaved with His-tagged Tobacco Etch Virus (TEV) protease overnight in a ratio 1:100 mg TEV per mg protein. The cleaved protein was further purified first on Ni-sepharose to remove TEV and then using an anion exchange column (HiTrap Q, GE Healthcare) followed if necessary by a Heparin column (GE Healthcare). In both cases a NaCl gradient from 50 to 800 mM in 20 mM HEPES 7.8, 0.5 mM tris(2-carboxyethyl)phosphine was used. To reconstitute the CBC heterodimer, cleared His-tagged CBP20 lysate was first immobilised on a Ni-sepharose column. After washing the column with lysis buffer, the cleared CBP80 lysate was applied to the column and further purification steps performed as described above. To remove the access of CBP20 the flow through of the Ni-column after TEV cleavage was loaded on an anion exchange column (HiTrap Q, GE Healthcare) and CBC eluted by a NaCl gradient as described above. In the text we refer to CBP80ΔNLS and CBP80ΔNLS-CBP20 as CBP80 and CBC, respectively. ARS2^845–871, NELF-E^354–380, and NELF-E^360–380 peptides, with or without FAM label at the N-terminus, were purchased from GenScript.

CBC [2] = molecular target: T2, CBC (Homo sapiens, UniProt P52298); experiment: ITC, binding to CBC without cap analogue; settings: ITC (MicroCal ITC200), 25 °C, 20 mM HEPES, 120 mM NaCl, 2 mM TCEP, pH 7.8, single-site fit; no cap analogue pre-bound; mean ± SD of at least two independent experiments; SD
T2 sequence (P52298 1-156): T1 sequence (P52298 1-156)
T2 sequence (Q09161 20-790 partner): T1 sequence (Q09161 20-790)
From the text: as §1, with “ARS2^845–871, NELF-E^354–380, and NELF-E^360–380 peptides, with or without FAM label at the N-terminus, were purchased from GenScript.” left out

m^7GTP-CBC [3] = molecular target: T1, m^7GTP-CBC; experiment: Fluorescence polarisation with FAM-labelled C-terminal peptides; assay type: binding; settings: 40 nM FAM peptide, 25 °C, n = 3; for Change of fluorescence polarisation on addition of labelled peptide to m^7GTP-CBC: 20 mM HEPES pH 7.8, 120 mM NaCl, 2 mM TCEP, ex 495 / em 515 nm
Procedure: (§2) Fig. 4 Incompatibility of ARS2-PHAX and NELF-E binding to CBC. a, b Competition on m^7GTP-sepharose. a In separate experiments, different amounts of ARS2^147–871 were added to preformed CBC–NELF–E complex immobilised on m^7GTP-sepharose. […] The fluorophore FAM is represented with a star. Note that different constructs of NELF-E and ARS2 were used in c, d, and e compared to f, g, and h and are therefore represented by slightly different shapes. Error bars show the SD of three experiments
Fluorescence anisotropy binding assays were performed with N-terminal FAM-labelled ARS2^845–871 and […] peptides. 40 nM peptides were titrated with increasing concentrations of proteins in 20 mM HEPES, pH 7.8, 120 mM NaCl, 2 mM tris(2-carboxyethyl)phosphine. For the competition assay CBC–ARS2 and CBC–NELF–E complexes were preformed in the presence of 25 µM m^7GTP using 40 nM ARS2^827–871(FAM) peptide together with 60 nM CBC and 40 nM NELF-E^354–380(FAM) peptide with 1 µM CBC. […] To observe a change in polarisation at reasonable protein concentrations, CBC and NELF-E^244–380 concentrations that saturate half of the FAM-labelled peptides were used to preform the individual complexes. Fluorescence polarisation was measured at 25 °C with a microplate reader (CLARIOstar BMG LABTECH) using an excitation wavelength of 495 nm and emission wavelength of 515 nm. For analysis the polarisation value for the peptide alone was subtracted from the measurements.

[4] = tested on: CBC with triple mutants of both CBP20 and CBP80; experiment: m^7GTP-sepharose pull down with mutated CBC; assay type: binding, human; settings: CBP80 Y461A/R610E/H651A combined with CBP20 Y50A/Y89A/D107R
From the text: For CBC, a triple mutant in CBP80 (Y461A/R610E/H651A) was combined with various mutations in CBP20 (Y50A, Y50A/Y89A, or Y50A/Y89A/D107R). Binding of ARS2^827–871 to mutated CBC was first tested by m^7GTP-sepharose pull down (Supplementary Fig. 6).

m^7GTP-CBCmut = experiment: ITC, binding to mutated CBC in the presence of m^7GTP; set-up: species or system human; settings: with m^7GTP; for Kd: 25 °C, pH 7.8, CBCmut = CBP20 Y50A + CBP80 Y461A/R610E/H651A, mean ± SD of 2 experiments
Procedure: For CBC, a triple mutant in CBP80 (Y461A/R610E/H651A) was combined with various mutations in CBP20 (Y50A, Y50A/Y89A, or Y50A/Y89A/D107R).
ITC experiments were performed on a MicroCal ITC200 system (Malvern). Proteins were dialyzed overnight in buffer 20 mM HEPES, 120 mM NaCl, 2 mM tris(2-carboxyethyl)phosphine, pH 7.8. Injections of 1.5 µl protein A were added at an interval of 120–180 s into 205 µl of protein B in the cell, with a stirring speed of 800 rpm at 25 °C. The experimental data were analysed with MicroCal ITC Origin and were fitted to a single-site binding equation.

CBC [5] = molecular target: T2, CBC; experiment: Size exclusion chromatography (gel filtration) co-elution with CBC, without m^7GTP; assay type: binding; settings: fractions analysed by SDS-PAGE, absence of m^7GTP
Procedure: (§3) Fig. 1 The interaction of CBC with ARS2 is enhanced in the presence of m^7GTP. a Schematic diagram of the domain structure of ARS2 based on ref. [26]. b Gel filtration chromatogram and Coomassie-stained SDS-PAGE of CBC-ARS2 in the presence and absence of m^7GTP. Purified recombinant CBC and ARS2^147–871 were mixed with (orange) or without (blue) 500 µM m^7GTP and subjected to gel filtration. Their elution profiles were overlaid (left) and single fractions analysed by SDS-PAGE (middle and right). Purified recombinant CBC and C-terminally truncated ARS2^147–845 were mixed with 500 µM m^7GTP and analysed in a similar way (bottom left). c ITC data and curve fit to derive the affinity of different ARS2 constructs for CBC. CBC or m^7GTP-CBC in the sample cell was titrated by ARS2. […] K D values and standard deviation represent the average from at least two independent experiments. d Sequence alignment of the C-terminus of ARS2. Conserved residues are highlighted in red. Figure made with ESPript[54]
(§4) Fig. 2 The interaction of CBC with NELF-E is enhanced in the presence of m^7GTP. a Schematic diagram of the domain structure of NELF-E. b Gel filtration chromatogram and Coomassie-stained SDS-PAGE of CBC-NELF-E in the presence and absence of m^7GTP. […] Their elution profiles were overlaid (left) and single fractions analysed by SDS-PAGE (middle and right). […]

CBC [6] = molecular target: T2, CBC; experiment: Size exclusion chromatography (gel filtration) co-elution with CBC, with m^7GTP; assay type: binding; settings: gel filtration with 500 µM m^7GTP, fractions analysed by SDS-PAGE
Procedure: as §3, §4

[7] = tested on: CBC–PHAX complex immobilised on m^7GTP-sepharose; experiment: Displacement pull down on m^7GTP-sepharose, CBC–PHAX; assay type: binding, human; settings: different amounts added, 1 h at 4 °C, flow through and elution by SDS-PAGE
Procedure: as §2
CBC-NELF-E^1–380 or CBC-PHAX^1–394 were immobilised on m^7GTP-sepharose and incubated for 1 h at 4 °C with different amounts of ARS2^147–871 or NELF-E^1–380 in 20 mM HEPES, pH 7.8, 120 mM NaCl, 2 mM tris(2-carboxyethyl)phosphine, respectively. The flow through, as well as the elution from the beads after extensive washing, was analysed by SDS-PAGE followed by Coomassie staining.

Substance: ARS2^845–871(FAM): N-terminal FAM-labelled ARS2 845–871 peptide ({FAM}-YPGKPRNRMVRGDPRAIVEYRDLDAPD; UniProt Q9BXP5 845-871, looked up, fragment) [reference compound]
Change of fluorescence polarisation on addition of labelled peptide to m^7GTP-CBC (m^7GTP-CBC [3]): increase in fluorescence polarisation, indicating binding

Substance: NELF-E^1–380: full-length human NELF-E, expressed in High Five insect cells
Interaction with CBC by SEC (CBC [5]): partially co-eluted | Interaction with CBC by SEC in the presence of m^7GTP (CBC [6]): stabilised the complex | Displacement of PHAX from preformed CBC-PHAX^1–394 bound to m^7GTP-sepharose [7]: resulted in the displacement of PHAX^1–394

Substance: NELF-E^354–380(FAM): N-terminal FAM-labelled NELF-E 354–380 peptide ({FAM}-PKGCHRDKRTQIVYSDDVYKENLVDGF; UniProt P18615 354-380, looked up, fragment) [reference compound]
Change of fluorescence polarisation on addition of labelled peptide to m^7GTP-CBC (m^7GTP-CBC [3]): increase in fluorescence polarisation, indicating binding

Substance: PHAX: full-length human PHAX (phosphorylated adaptor for RNA export), residues 1–394
Kd (m^7GTP-CBC [1]): 130 ± 50 nM

Second part, led by results:

Kd (m^7GTP-CBC [1]): 1800 ± 260 nM
Substance: ARS2 827–871 F871D: ARS2 827–871 construct with F871D mutation (GRGNYDAFRGQGGYPGKPRNRMVRGDPRAIVEYRDLDAPDDVDFD)

Kd (m^7GTP-CBC [1]): 1000 ± 200 nM | Enhancement of the interaction with CBC when m^7GTP is bound (m^7GTP-CBC [1]; ratio of ITC K D without / with m^7GTP): twelve-fold | Kd (CBC [2]): 12200 ± 3500 nM | Change of polarisation on titration to m^7GTP-CBC-NELF-E^354–380(FAM) (m^7GTP-CBC [3]; competition, 1 µM CBC, 25 µM m^7GTP): decrease in polarisation | Kd (m^7GTP-CBCmut): ~12000 nM | Kd (m^7GTP-CBCmut; SD): 11600 ± 1100 nM | Reduction in affinity of CBCmut compared to wild-type CBC (m^7GTP-CBCmut): twelvefold
Substance: ARS2 827–871: human ARS2 isoform 4 residues 827–871, E. coli expressed construct (APYGAGRGNYDAFRGQGGYPGKPRNRMVRGDPRAIVEYRDLDAPD; isoform 4; UniProt Q9BXP5 827-871, looked up, fragment)
Co-elution with mutated CBC in m^7GTP-sepharose pull down [4]: abolished co-elution

Kd (m^7GTP-CBC [1]): 3300 ± 1100 nM
Substance: DKRTQIVYSDDVYKENLVDGF [NELF-E 360–380]

Kd (m^7GTP-CBC [1]): 1100 ± 160 nM
Substance: RNRMVRGDPRAIVEYRDLDAPDDVDFF [ARS2 845–871]

— article PMC5670239, “Structural basis for mutually exclusive co-transcriptional nuclear cap-binding complexes with either NELF-E or ARS2” (Nature Communications, 2017)
